According to US20160280748:

Experiments:
[1] = test system: +36 GFP-(GGS)4-ALAL-(GGS)4-Cre-His6
[2] = test system: +36 GFP-(GGS)4-ALAL-(GGS)4-mCherry-His6
Sequence of +36 GFP-(GGS)4-ALAL-(GGS)4-mCherry-His6 (chain, as listed by the source): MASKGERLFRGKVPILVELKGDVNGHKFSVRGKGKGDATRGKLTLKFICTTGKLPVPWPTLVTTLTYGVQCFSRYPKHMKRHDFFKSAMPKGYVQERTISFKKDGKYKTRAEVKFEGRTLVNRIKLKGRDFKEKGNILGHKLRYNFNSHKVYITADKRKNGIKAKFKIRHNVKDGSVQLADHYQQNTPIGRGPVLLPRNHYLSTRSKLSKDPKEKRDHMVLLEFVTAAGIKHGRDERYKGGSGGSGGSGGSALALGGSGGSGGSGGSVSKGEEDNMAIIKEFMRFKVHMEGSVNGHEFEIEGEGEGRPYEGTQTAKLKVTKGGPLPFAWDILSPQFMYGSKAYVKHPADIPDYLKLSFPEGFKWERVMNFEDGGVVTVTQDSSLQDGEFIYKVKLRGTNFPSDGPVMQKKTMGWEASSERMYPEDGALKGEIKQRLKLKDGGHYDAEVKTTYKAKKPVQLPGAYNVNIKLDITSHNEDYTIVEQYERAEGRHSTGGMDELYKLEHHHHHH

Sequence of +36 GFP-(GGS)4-ALAL-(GGS)4-Cre-His6 (chain, as listed by the source): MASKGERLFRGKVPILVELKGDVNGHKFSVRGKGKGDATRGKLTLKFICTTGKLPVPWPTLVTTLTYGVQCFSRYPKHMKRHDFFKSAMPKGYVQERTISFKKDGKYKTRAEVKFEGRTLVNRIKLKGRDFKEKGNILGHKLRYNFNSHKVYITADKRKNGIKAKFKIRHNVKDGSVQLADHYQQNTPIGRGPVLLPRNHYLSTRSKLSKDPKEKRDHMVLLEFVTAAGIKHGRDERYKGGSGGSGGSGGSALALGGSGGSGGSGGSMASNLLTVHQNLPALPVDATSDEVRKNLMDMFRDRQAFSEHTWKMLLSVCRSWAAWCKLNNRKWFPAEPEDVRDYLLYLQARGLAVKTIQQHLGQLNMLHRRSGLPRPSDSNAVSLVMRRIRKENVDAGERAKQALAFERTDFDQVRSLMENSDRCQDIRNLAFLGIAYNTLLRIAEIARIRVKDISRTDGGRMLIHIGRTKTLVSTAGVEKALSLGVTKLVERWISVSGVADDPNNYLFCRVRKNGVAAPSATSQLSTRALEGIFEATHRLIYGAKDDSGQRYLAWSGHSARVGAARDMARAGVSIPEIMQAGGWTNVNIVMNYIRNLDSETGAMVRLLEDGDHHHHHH

cathepsin B from human liver (Sigma) was tested. Which “cleavage of the fusion protein in vitro (gel)” value [1] did it give?
Its value is “the +36 GFP-Cre fusion was indeed cleaved into two protein fragments with lengths consistent with separated +36 GFP and Cre”.

What about the “cleavage of the fusion protein in vitro (gel)” value [2] of the same substance?
Its value is “Cleavage of +36 GFP-mCherry fusion. ... lane 4: +36 GFP-mCherry fusion after treatment with 500 ng cathepsin B for 45 min at 37 °C”.
